Data published in patent WO2010028797A1 (dated 2010).

Target: human CCR5 (human, UniProt P51681 1-352)
Test: cell-based or functional assay

human CCR5, sequence (P51681 whole entry): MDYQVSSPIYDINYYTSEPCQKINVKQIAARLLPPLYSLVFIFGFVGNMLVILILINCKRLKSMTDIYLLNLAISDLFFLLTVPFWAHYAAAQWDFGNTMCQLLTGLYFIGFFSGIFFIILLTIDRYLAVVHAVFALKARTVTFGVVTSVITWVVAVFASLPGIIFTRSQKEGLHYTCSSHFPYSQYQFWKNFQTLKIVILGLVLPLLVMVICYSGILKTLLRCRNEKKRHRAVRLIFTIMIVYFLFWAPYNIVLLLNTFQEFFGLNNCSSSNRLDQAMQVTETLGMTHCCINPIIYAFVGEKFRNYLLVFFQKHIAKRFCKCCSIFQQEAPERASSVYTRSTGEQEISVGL

B1: BN-1000 (antibody, V domains shown)
VH: QVQLKQSGPGLVRPSQSLSITCTVSGFPLGIFGVHWVRQSPGKGLEWLGVIWKGGNTDYNAAFMSRLRITKDNSKSQVFFRMNSLQTDDTAIYYCAKVNLADAMDYWGQGTSVIVSS
VL: DIQMTQSPASLSASVGETVTITCRASGNIHGYLAWFQQKQGKSPQLLVYNTKTLAEGVPSRFSGSGSGTQFSLKINSLQPEDFGNYYCQHHYDLPRTFGGGTKLEIK
B1 was tested, and the “IC50, antiviral assay in PBMC (HIV-1 NLBaL, p24 ELISA)” value was 1.08 nM.
